Experimental data from article PMC6451091, “NextPBM: a platform to study cell-specific transcription factor binding and cooperativity”.
Changes are numbered by the printed parent chain.

B1: PBM_PU1_IRF8_v2_16 (dsDNA)
DNA 1: GCCTAGCACAATATAGGGAAGTGCTTAACGTGCTAGGTCTTGATTCGCTTGACGCTGCTG
DNA 2: CAGCAGCGTCAAGCGAATCAAGACCTAGCACGTTAAGCACTTCCCTATATTGTGCTAGGC
B2: PBM_PU1_IRF8_v2_30 (dsDNA)
DNA 1: GCCTAGCACATTTTAAGGAAGTGAAACCCGTGCTAGGTCTTGATTCGCTTGACGCTGCTG
DNA 2: CAGCAGCGTCAAGCGAATCAAGACCTAGCACGGGTTTCACTTCCTTAAAATGTGCTAGGC
B3: PBM_PU1_IRF8_v2_1 (dsDNA)
DNA 1: GCCTAGCACTAAAAGAGGAAGTGGCAGATGTGCTAGGTCTTGATTCGCTTGACGCTGCTG
DNA 2: CAGCAGCGTCAAGCGAATCAAGACCTAGCACATCTGCCACTTCCTCTTTTAGTGCTAGGC
B4: PBM_PU1_IRF8_v2_13 (dsDNA)
DNA 1: B3 DNA 1 with T10G, G23C, G24A, C25G, G27T, A28T, T29G
DNA 2: B3 DNA 2 with A32C, T33A, C34A, G36C, C37T, C38G, A51C
B5: PBM_PU1_IRF8_v2_4 (dsDNA)
DNA 1: B3 DNA 1 with T10G, G15C, C25A, A26C, G27A, T29C
DNA 2: B3 DNA 2 with A32G, C34T, T35G, G36T, C46G, A51C
B6: PBM_PU1_IRF8_v2_5 (dsDNA)
DNA 1: B3 DNA 1 with T10A, A13T, G23C, G24A, C25G, T29G
DNA 2: B3 DNA 2 with A32C, G36C, C37T, C38G, T48A, A51T
B7: PBM_PU1_IRF8_v2_3 (dsDNA)
DNA 1: B3 DNA 1 with T10A, A11T, A14G, A26T, T29A
DNA 2: B3 DNA 2 with A32T, T35A, T47C, T50A, A51T
B8: PBM_PU1_IRF8_v2_6 (dsDNA)
DNA 1: B3 DNA 1 with T10G, A13G, G24A, C25A, G27T, A28T, T29A
DNA 2: B3 DNA 2 with A32T, T33A, C34A, G36T, C37T, T48C, A51C
B9: PBM_PU1_IRF8_v2_24 (dsDNA)
DNA 1: B2 DNA 1 with T12A, T13A, T14G, A15G, A25G, C28A, C29G
DNA 2: B3 DNA 2 with A32C, C34G, G36C, C37T, T47C, T50A, A51T
B10: PBM_PU1_IRF8_v2_22 (dsDNA)
DNA 1: B3 DNA 1 with T10G, C25A, G27A, A28C, T29A
DNA 2: B3 DNA 2 with A32T, T33G, C34T, G36T, A51C
B11: PBM_PU1_IRF8_v2_23 (dsDNA)
DNA 1: B3 DNA 1 with T10C, A14T, G24A, C25G, G27C, A28T
DNA 2: B3 DNA 2 with T33A, C34G, G36C, C37T, T47A, A51G
B12: PBM_PU1_IRF8_v2_2 (dsDNA)
DNA 1: GCCTAGCACGAAAAGGGGAAGTGTATTCCGTGCTAGGTCTTGATTCGCTTGACGCTGCTG
DNA 2: CAGCAGCGTCAAGCGAATCAAGACCTAGCACGGAATACACTTCCCCTTTTCGTGCTAGGC

target: PU.1 (IVT) (UniProt P17947 1-270); assay: PBM; 20 mM HEPES pH 7.9, 100 mM NaCl, 1 mM DTT, 0.2 mg/mL BSA, 0.02% Triton X-100, 2% milk, 0.4 mg/mL salmon testes DNA, 1 h; temperature not stated; details: protein: ivt; blunt
Outline: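 Binding is given as a z-score derived from scanned fluorescence that was normalised by linear regression. To obtain it, full-length untagged PU.1 from coupled human in vitro transcription/translation was applied for 1 h to custom double-stranded DNA microarrays of 20-bp genomic sites and single-nucleotide variants, using 10 probes per site with 5 in each orientation. The binding buffer was HEPES pH 7.9 with 100 mM NaCl, 2% milk and salmon testes DNA, and detection used anti-PU.1 and then a fluorescent secondary antibody.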

Row | Binder | binding signal
1 | B1 | 5.82 z-score
2 | B2 | 5.72 z-score
3 | B3 | 8.16 z-score
4 | B4 | 8.24 z-score
5 | B5 | 7.4 z-score
6 | B6 | 6.21 z-score
7 | B7 | 5.13 z-score
8 | B8 | 5.03 z-score
9 | B9 | 4.54 z-score
10 | B10 | 8.54 z-score
11 | B11 | 7.69 z-score
12 | B12 | 7.7 z-score
